In patent publication US20210171638A1 (HISUN BIORAY PHARMACEUTICAL, published 2021):
Substitutions are numbered along the chain they refer to. Each block holds one binder with its values, some of them ahead of it.

Tests used:
Human PD-L1 (R&D) = target: T1, Human PD-L1 (R&D) (human, UniProt Q9NZQ7 19-239, limits assumed); experiment: ELISA, human PD-L1 coated at 5 µg/ml, anti-human Fc-HRP, OD600
T1 construct: Bought recombinant protein coated on ELISA plates; construct not described; also called human PD-L1 protein
T1 sequence (Q9NZQ7 19-239 limits assumed): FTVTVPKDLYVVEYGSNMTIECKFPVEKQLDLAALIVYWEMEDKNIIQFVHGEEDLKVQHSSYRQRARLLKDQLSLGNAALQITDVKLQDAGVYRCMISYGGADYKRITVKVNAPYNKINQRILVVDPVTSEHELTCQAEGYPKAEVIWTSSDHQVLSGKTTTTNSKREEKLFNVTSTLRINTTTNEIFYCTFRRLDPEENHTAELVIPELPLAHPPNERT
Procedure: (§1) In this Example, ELISA assay was used to determine binding of the candidate antibody to human, monkey, and mouse PD-L1.
(§2) After incubation overnight at 4° C., the coating solution was discarded the next day and washed with PBST. 200 μl of BSA blocking solution was added into each well and incubated for 1 h at room temperature. […] Then 100 μl of antibody was added into each well and incubated for 2 h at room temperature. Washing was performed three times with PBST, and anti-human Fc-HRP antibody (Sino Biological) was added and incubated for 1 h at room temperature. Finally, each well was washed four times with PBST, TMB color developing solution (Beijing Tiangen BioTech) was added, and the color was developed at room temperature. After the color development was stopped, the OD value was determined with a microplate reader at 600 nm.

Mouse PD-L1 (R&D) = target: T2, Mouse PD-L1 (R&D) (mouse, UniProt Q9EP73 19-238, limits assumed); experiment: ELISA, mouse PD-L1 coated at 5 µg/ml, anti-human Fc-HRP, OD600
T2 construct: Bought recombinant protein coated on ELISA plates; construct not described; also called mouse PD-L1 protein
T2 sequence (Q9EP73 19-238 limits assumed): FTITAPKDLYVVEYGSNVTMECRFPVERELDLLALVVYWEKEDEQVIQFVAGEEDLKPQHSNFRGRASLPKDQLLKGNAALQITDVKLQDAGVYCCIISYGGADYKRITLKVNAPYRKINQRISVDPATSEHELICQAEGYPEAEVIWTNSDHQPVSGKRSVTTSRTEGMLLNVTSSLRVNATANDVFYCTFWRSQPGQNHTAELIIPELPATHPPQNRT
Procedure: as §1, §2

Monkey PD-L1 (R&D) = target: T3, Monkey PD-L1 (R&D) (monkey); experiment: ELISA, monkey PD-L1 coated at 5 µg/ml, anti-human Fc-HRP, OD600
T3 construct: Bought recombinant protein coated on ELISA plates; construct and monkey species not described; also called monkey PD-L1 protein
Procedure: as §1, §2

[1] = target: T4, Recombinant His-tagged PD-L1 (Homo sapiens (Human), UniProt Q9NZQ7 19-238); experiment: BIAcore SPR, antibody captured by anti-human IgG on CM5 chip, His-tagged PD-L1 as analyte, 1:1 fit
T4 construct: also called target antigen
T4 sequence (Q9NZQ7 19-238 limits assumed): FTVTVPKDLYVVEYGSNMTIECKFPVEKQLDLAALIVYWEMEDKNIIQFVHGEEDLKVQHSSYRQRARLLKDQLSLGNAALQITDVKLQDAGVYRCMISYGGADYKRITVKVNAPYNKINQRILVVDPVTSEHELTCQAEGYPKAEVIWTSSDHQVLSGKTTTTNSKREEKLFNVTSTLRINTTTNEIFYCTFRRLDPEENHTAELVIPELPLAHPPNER
Procedure: In this Example, BIAcore is used to determine antibody affinity. In this experiment, the human antibody capture kit (GE, BR100839) was used to couple the anti-human IgG antibody to the S series CM5 sensor chip (GE, BR100530) through amino before the ligand and analyte binding. Recombinant anti-PD-L1 antibodies, B10, B11, and H12 were diluted with HBS-EP+Buffer as ligands. The recombinant His-tagged PD-L1 was diluted with HBS-EP+Buffer to 8 μg/ml, 4 μg/ml, 1.6 μg/ml, 0.64 μg/ml, 0.256 μg/ml and 0.102 μg/ml as analytes. In Biacore Wizard mode, affinity analysis experiments were performed in a multi-cycle manner. The test of each sample included 3 Start up, 1 zero concentration control, 6 gradient concentration samples and 1 repeated concentration sample. After each cycle, 10 mM Glycine HCl PH2.1 regeneration solution is used to regenerate the chip. Each concentration cycle of the analyte was set as follows: capture time 180s, ligand solution flow rate 10 μl/min, ligand and analyte binding time 180 s, analyte solution flow rate 30 μl/min; dissociation time 2400 s. Raw data was introduced into the analysis software, the zero concentration control was subtracted, and the reference channel was subtracted to eliminate the volume effect. The 1:1 binding mode in the Kinetics analysis method was used to fit the graph and the affinity data of the antigen antibody was calculated by regression analysis using the analysis software based on the binding curve.

hPD-L1-Fc protein (R&D) [2] = target: T5, hPD-L1-Fc protein (R&D) (human, UniProt Q9NZQ7 19-239); experiment: blocking ELISA: hPD-L1-Fc coated at 1 µg/mL, B11 dilutions mixed 1:1 with CD80-Biotin (0.25 µg/mL), avidin-HRP, OD450
T5 construct: construct not described; not shown: Fc part
T5 sequence (Q9NZQ7 19-239 limits assumed): as the sequence (Q9NZQ7 19-239 limits assumed) above

hPD-L1-Fc protein (R&D) [3] = target: T5, hPD-L1-Fc protein (R&D); experiment: blocking ELISA: hPD-L1-Fc coated at 1 µg/mL, B11 dilutions mixed 1:1 with hPD-1-Fc-Biotin (0.25 µg/mL), avidin-HRP, OD450

EC50 (Human PD-L1 (R&D)): 1.03 pM
EC50 (Mouse PD-L1 (R&D)): 0.407 pM
EC50 (Monkey PD-L1 (R&D)): 0.495 pM
Kd [1]: 629 pM
koff [1]: 0.000857 s⁻¹
kon [1]: 1.36e+06 M⁻¹ s⁻¹
IC50 (read off the curve) (hPD-L1-Fc protein (R&D) [2]): ~0.2 µg/mL
IC50 (read off the curve) (hPD-L1-Fc protein (R&D) [3]): ~0.3 µg/mL
B1: Anti-PD-L1 Antibody B11 (antibody, V domains shown)
VH: EVQLVESGGGLVQPGGSLRLSCAASGFTFSETWLHWVRQAPGKGLEWVAWVSPFGGSTYYADSVKGRFTISADTSKNTAYLQMNSLRAEDTAVYYCARRHWPGGFDYWGQGTLVTVSS
VL: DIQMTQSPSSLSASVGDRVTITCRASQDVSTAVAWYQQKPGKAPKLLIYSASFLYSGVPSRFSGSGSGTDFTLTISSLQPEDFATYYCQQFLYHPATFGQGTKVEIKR
notes: also called HZPDL1-B11

EC50 (Human PD-L1 (R&D)): 1.4 pM
EC50 (Mouse PD-L1 (R&D)): 0.483 pM
EC50 (Monkey PD-L1 (R&D)): 0.551 pM
Kd [1]: 2190 pM
koff [1]: 0.00261 s⁻¹
kon [1]: 1.19e+06 M⁻¹ s⁻¹
B2: Anti-PD-L1 Antibody H12 (antibody, V domains shown)
VH: B1 VH with T32S, S52T, F54Y
VL: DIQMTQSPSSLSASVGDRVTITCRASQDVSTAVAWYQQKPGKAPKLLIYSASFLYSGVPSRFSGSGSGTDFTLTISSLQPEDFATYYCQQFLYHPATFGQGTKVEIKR
notes: also called HZPDL1-H12

EC50 (Human PD-L1 (R&D)): 1.97 pM
EC50 (Mouse PD-L1 (R&D)): 0.906 pM
EC50 (Monkey PD-L1 (R&D)): 2.65 pM
Kd [1]: 1640 pM
koff [1]: 0.00236 s⁻¹
kon [1]: 1.44e+06 M⁻¹ s⁻¹
B3: Anti-PD-L1 Antibody B10 (antibody, V domains shown)
VH: not shown
VL: DIQMTQSPSSLSASVGDRVTITCRASQDVSTAVAWYQQKPGKAPKLLIYSASFLYSGVPSRFSGSGSGTDFTLTISSLQPEDFATYYCQQFIFHPATFGQGTKVEIKR
notes: also called HZPDL1-B10
